From patent US20070172423A1, “Composition and method for modulating vasculogenesis for angiogenesis” (priority 1998, published 2007)

What was measured:
[1] = system: PDGFR-α; test: PDGFR-α expression in gastrocnemius muscle by RNAse protection analysis; type: in vivo, mouse; settings: 4.5 μg daily, day 2 after ligation, compared to vehicle
Description: RNase protection analysis (RPA) was performed according to the manufacturer's protocol (Ambion) to investigate gene expression at mRNA level. Riboprobes were prepared using RNA polymerase (Promega) and ^32P-UTP (Amersham). Mouse β-actin cDNA (250 bp, Ambion) was used as an internal control. For Western blot assay, subconfluent cells were rinsed with cold PBS supplemented with 5 µg/ml of antiprotease cocktail, lysed in RIPA buffer and analyzed on 10% acrylamide SDS PAGE in reducing condition. […] The precipitants were analysed on SDS-PAGE, and immunoblotted using a monoclonal anti-phosphotyrosine antibody (Santa Cruz).
To further verify the angio/arteriogenic activity of PDGF-CC in vivo, the effect of PDGF-CC in an established mouse model of hind limb ischemia is investigated (Luttun et al., Nat Med, 2002 1:1). PDGFR-α expression was quantified by RNAse protection analysis in the gastrocnemius muscle, which becomes highly ischemic after ligation of the femoral artery (Deindl et al., Circ Res, 2001 89:779-86; Couffinhal et al., American Journal of Pathology, 1998 152:1667-1679). […] Revascularization of the ischemic gastrocnemius muscle, which only occurred in those regions where regenerating muscle replaced the necrotic avascular muscle, was scored after continuous delivery, by osmotic minipump, of 4.5 μg PDGF-CC per day for one week after femoral artery ligation. […]

[2] = target: T1, human VEGFR-3 (Homo sapiens, UniProt P35916); test: Binding to soluble VEGFR-3-Ig fusion protein; settings: 35S-labeled protein in conditioned medium from 293 cells, precipitation with Ig-fusion protein
T1 construct: soluble Ig-fusion proteins containing the extracellular domains of human VEGFR-1, VEGFR-2 and VEGFR-3; made in house; host or cells: human 293 EBNA cells, transient expression
T1 sequence (P35916 25-775 limits assumed): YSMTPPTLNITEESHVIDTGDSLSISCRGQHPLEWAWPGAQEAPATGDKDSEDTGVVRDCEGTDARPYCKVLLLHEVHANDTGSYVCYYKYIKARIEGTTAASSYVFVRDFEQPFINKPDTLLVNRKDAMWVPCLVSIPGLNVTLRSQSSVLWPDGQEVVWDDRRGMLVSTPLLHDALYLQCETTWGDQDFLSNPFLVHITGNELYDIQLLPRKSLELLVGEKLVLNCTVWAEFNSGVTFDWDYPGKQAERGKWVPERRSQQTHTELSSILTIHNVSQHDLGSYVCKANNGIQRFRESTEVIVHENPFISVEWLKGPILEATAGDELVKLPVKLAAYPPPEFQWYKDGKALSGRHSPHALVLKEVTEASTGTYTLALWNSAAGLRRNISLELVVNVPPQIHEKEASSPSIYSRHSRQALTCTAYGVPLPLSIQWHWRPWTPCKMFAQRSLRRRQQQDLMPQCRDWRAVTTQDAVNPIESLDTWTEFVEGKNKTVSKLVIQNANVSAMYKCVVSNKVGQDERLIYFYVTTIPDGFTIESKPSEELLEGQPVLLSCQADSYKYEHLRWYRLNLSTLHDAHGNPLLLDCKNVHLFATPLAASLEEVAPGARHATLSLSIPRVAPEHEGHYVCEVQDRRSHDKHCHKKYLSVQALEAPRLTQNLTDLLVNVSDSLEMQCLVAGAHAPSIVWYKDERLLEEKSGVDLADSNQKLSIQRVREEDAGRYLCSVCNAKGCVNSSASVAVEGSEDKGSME
Description: To assess the interactions between full length and truncated PDGF-C and the VEGF receptors, full length and truncated PDGF-C were tested for their capacity to bind to soluble Ig-fusion proteins containing the extracellular domains of human VEGFR-1, VEGFR-2 and VEGFR-3 (Olofsson et al., Proc. Natl. Acad. Sci. USA, 1998 95:11709-11714). The fusion proteins, designated VEGFR-1-Ig, VEGFR-2-Ig and VEGFR-3-Ig, were transiently expressed in human 293 EBNA cells. All Ig fusion proteins were human VEGFRs. Cells were incubated for 24 hours after transfection, washed with Dulbecco's Modified Eagle Medium (DMEM) containing 0.2% bovine serum albumin and starved for 24 hours. The fusion proteins were then precipitated from the clarified conditioned medium using protein A-Sepharose beads (Pharmacia). The beads were combined with 100 microliters of 10× binding buffer (5% bovine serum albumin, 0.2% Tween 20 and 10 µg/ml heparin) and 900 microliter of conditioned medium from 293 cells that had been transfected with mammalian expression plasmids encoding full length or truncated PDGF-C or control vector, then metabolically labeled with ^35S-cysteine and methionine (Promix, Amersham) for 4 to 6 hours. […] Labeled proteins that were bound to the Ig-fusion proteins were analyzed by SDS-PAGE under reducing conditions. Radiolabeled proteins were detected using a phosphorimager analyzer.

B1: PDGF-CC: recombinant human PDGF-CC core domain homodimer, residues 230-345 of full-length PDGF-C (SEQ ID NO:40), produced in baculovirus infected insect cells (protein)
chain: GRKSRVVDLNLLTEEVRLYSCTPRNFSVSIREELKRTDTIFWPGCLLVKRCGGNCACCLHNCNECQCVPSKVTKKYHEVLQLRPKTGVRGLHKSLTDVALEHHEECDCVCRGSTGG
modifications: homodimer; PDGF-C core domain
With B1 the “PDGFR-α expression in gastrocnemius muscle” value [1] was “almost completely restored” and the “interaction with VEGFR-3-Ig” value [2] was “failed to show any interaction”.
